B1: CD59: DMJ (protein)
parent chain: MGIQGGSVLFGLLLVLAVFCHSGHSLQCYNCPNPTADCKTAVNCSSDFDACLITKAGLQVYNKCWKFEHCNFNDVTTRLRENELTYYCCKKDLCNFNEQLENGGTSLSEKTVLLLVTPFLAAAWSLHP
B2: CD59: sgALG6 in MOGS-KO (protein)
parent chain: B1 parent chain
B3: CD59: GANAB-KO (protein)
parent chain: B1 parent chain
B4: CD59: KIF (protein)
parent chain: B1 parent chain
B5: CD59: sgALG8 in MOGS-KO (protein)
parent chain: B1 parent chain
B6: CD59: DNJ (protein)
parent chain: B1 parent chain

What was measured:
[1] = 10-11 d drug culture, PIPLC, anti-CD59 flow cytometry; conditions: glycan changed form; control: untreated HEK293FF6 cells
[2] = PIPLC treatment, anti-CD59 flow cytometry; conditions: glycan changed form

| Protein | other: PIPLC resistance of surface CD59 (GPI-inositol acylation) [1] | other: PIPLC resistance of surface CD59 (GPI-inositol acylation) ([2]; control: MOGS-KO cells) | further results |
| --- | --- | --- | --- |
| B1 | no change | – | – |
| B2 | – | decreases | – |
| B3 | – | – | other: PIPLC resistance of surface CD59 (GPI-inositol acylation) ([2]; control: WT HEK293 cells): increases |
| B4 | no change | – | – |
| B5 | – | decreases | – |
| B6 | increases | – | – |

From PMC5800811
